Reference: patent publication US20220298254A1 (HUMMINGBIRD BIOSCIENCE HOLDINGS PTE, published 2022)
Read-outs that look alike come from different tables or passages of the source.

Legend:
[1] = biological target: T1, human CD47 (recombinant protein, construct not stated) (human, UniProt Q08722 19-141); assay: BLI (BLItz), IgG1 captured on anti-human Fc tips, human CD47 as analyte, 1:1 global fit
T1 construct: also called hCD47; human CD47 protein
Method: Bio-Layer Interferometry (BLI) experiments were performed using a single channel BLItz system (ForteBio, Menlo Park, Calif.) using Anti-human immunoglobulin G (IgG) Fc (AHC) coated biosensor tips (Pall ForteBio, Menlo Park, Calif.) for capturing human IgGs. Biosensors were first hydrated for at least 10 m in assay buffer (phosphate buffered saline) followed by buffer baseline for 30 s and loading of the human IgGs onto the biosensor tips at concentrations ranging from 25-50 nM for 120 s. The tips were then washed briefly for 30 s with the assay buffer to remove nonspecifically bound proteins or unbound IgGs for obtaining a second buffer baseline. […] All the BLITz runs were measured at room temperature at a stirring speed of 1000 rpm and AHC biosensors were regenerated using 10 mM of glycine (pH 2.7) after the assay. Binding affinity between the immobilized antibodies on the AHC sensors and human CD47 were determined by analyzing the binding kinetic curves using the software BLItz Pro. All the sensorgrams were reference subtracted and globally fitted into a 1:1 model which analysed the binding curves at different concentrations of antigens and generated kinetic constants (KD/Ka/Kd) for the globally fitted data. […]
(§1) The anti-CD47 antibody clones in IgG1 format were analyzed for binding affinity to human CD47.

[2] = biological target: T1, human CD47 (recombinant protein, …); assay: as above; remark: listed apart in the source
Method: Biosensors were first hydrated for at least 10 m in assay buffer (phosphate buffered saline) followed by buffer baseline for 60 s and loading of the human IgGs onto the biosensor tips at 25 nM for 120 s. The tips were then washed briefly for 60 s with the assay buffer to remove nonspecifically bound proteins or unbound IgGs for obtaining a second buffer baseline. The association phase of the IgGs with antigens (250 nM to 62.5 nM) was set up at 120 s which was followed by a dissociation phase (assay buffer alone) for 120 s. All the BLITz runs were measured at room temperature at a stirring speed of 1000 rpm and AHC biosensors were regenerated using 10 mM of glycine (pH 2.7) after the assay. Binding affinity between the immobilized antibodies on the AHC sensors and human CD47 were determined by analyzing the binding kinetic curves using the software BLItz Pro. All the sensorgrams were reference subtracted and globally fitted into a 1:1 model which analysed the binding curves at different concentrations of antigens and generated kinetic constants (KD/Ka/Kd) for the globally fitted data. All the binding curves were subjected to step correction which corrects the misalignment between association and dissociation steps and only the curves with R² values greater than 0.9 were used for analysis.

his-tagged human CD47 [3] = biological target: T2, his-tagged human CD47 (human, UniProt Q08722 19-141); assay: BLI (Octet), his-tagged human CD47 loaded on anti-Penta-HIS (HIS1K) sensors, antibody as analyte
T2 construct: not shown: his tag
Method: (§2) Buffer baseline was obtained for 30 s, and then sensors were loaded with his-tagged human CD47 (1.2 μM) for 120 s.

[4] = biological target: T3, untagged human CD47 protein (Sinobiological Inc) (human, UniProt Q08722 19-141); assay: competition ELISA: inhibition of His-tagged SIRPα binding to coated human CD47
T3 construct: Bought

human VISTA protein = human VISTA protein (human, UniProt Q9H7M9 33-194, limits assumed); assay: ELISA on coated human VISTA protein
Method: (§3) 96-well plates (Nunc, Denmark) were coated with 1 μg/ml of human CD47 or VISTA protein in PBS, for 1 h at room temperature. Plates were blocked for 1 h at room temperature with 1% BSA in Tris buffer saline containing 0.05% Tween 20 (TBS-T). The test antigen-binding molecules were added at concentrations ranging from to 0.002 μg/ml to 200 μg/ml, and the plates were incubated at room temperature for 1 h. Plates were then washed three times with TBS-T, and were then incubated with a HRP-conjugated secondary antibody for 1 h at room temperature. After washing, plates were developed with colorimetric detection substrate 3,3′,5,5′-tetramethylbenzidine (Turbo-TMB; Pierce, USA). The reaction was stopped after 3.5 min with 2M […], and OD was measured at 450 nm.
In a separate ELISA, the antigen-binding molecules were evaluated for binding to human VISTA.

[5] = biological target: T1, human CD47 (recombinant protein, …); assay: BLI (BLItz), IgG captured on anti-human IgG Fc (AHC) tips, human CD47 as analyte, global 1:1 fit
Method: Bio-Layer Interferometry (BLI) experiments were performed using a single channel BLItz system (ForteBio, Menlo Park, Calif.) using Anti-human immunoglobulin G (IgG) Fc (AHC) coated biosensor tips (Pall ForteBio, Menlo Park, Calif.) for capturing human IgGs. Biosensors were first hydrated for at least 10 m in assay buffer (phosphate buffered saline) followed by buffer baseline for 30 s and loading of the human IgGs onto the biosensor tips at concentrations ranging from 25-50 nM for 120 s. The tips were then washed briefly for 30 s with the assay buffer to remove nonspecifically bound proteins or unbound IgGs for obtaining a second buffer baseline. The association phase of the IgGs with antigens (500 nM-0 nM) was set up at 120 s which was followed by a dissociation phase (assay buffer alone) for 120 s. All the BLITz runs were measured at room temperature at a stirring speed of 1000 rpm and AHC biosensors were regenerated using 10 mM of glycine (pH 2.7) after the assay. Binding affinity between the immobilized antibodies on the AHC sensors and human CD47 were determined by analyzing the binding kinetic curves using the software BLItz Pro. All the sensorgrams were reference subtracted and globally fitted into a 1:1 model which analysed the binding curves at different concentrations of antigens and generated kinetic constants (KD/Ka/Kd) for the globally fitted data. All the binding curves were subjected to step correction which corrects the misalignment between association and dissociation steps and only the curves with R² values greater than 0.9 were used for analysis.
as §1

[6] = biological target: T1, human CD47 (recombinant protein, …); assay: ELISA on coated human CD47
Method: as §3

his-tagged human CD47 [7] = biological target: T2, his-tagged human CD47; assay: BLI, his-tagged human CD47 on anti-Penta-HIS (HIS1K) sensors, antibody as analyte
Method: as §2

B1: anti-CD47 clone 1-1-A1_BM IgG1 (antibody, V domains shown)
VH: QVQLQQSGPDLKKPGASVKVSCKVSGYTFTNYVIHWVRQKPGQGLEWMGYINPYNDGTKSNEKFKGKATLTSDKSSTSAYMELSSLTSEDTAVYYCASGGYYTMDYWGQGTSVTVSS
VL: DVVMTQTPLSLPVTLGDQASISCRSSQHLEYSNGYSYLHWYQQRPGQSPQLLIYKISNRFSGVPDRFSGSGSGTDFTLKISRVEAEDLGVYYCSQSTHVPYTFGGGTKLEIKR
What does the source list for B1?
Kd [1]: 16.1 nM; Kd [2]: 9.31 nM; koff [2]: 0.00121 s⁻¹; kon [2]: 130000 M⁻¹ s⁻¹; koff (his-tagged human CD47 [3]): 0.000618 s⁻¹; kon (his-tagged human CD47 [3]): 59400 M⁻¹ s⁻¹; Fold increase in IC50 relative to 1-1-A1_BM [4]: 1 fold; IC50 [4]: 0.474 µg/mL; binding result (human VISTA protein): no binding (tested: 0.002 µg/ml to 200 µg/ml); koff [5]: 0.00217 s⁻¹; kon [5]: 134000 M⁻¹ s⁻¹; EC50 [6]: 0.0018 µg/mL; Fold increase in EC50 relative to 1-1-A1_BM [6]: 1 fold; Kd (his-tagged human CD47 [7]): 10.4 nM
